B1: recombinant GPX4 protein (SPR and MST) (natural protein)
chain: MSLGRLCRLLKPALLCGALAAPGLAGTMCASRDDWRCARSMHEFSAKDIDGHMVNLDKYRGFVCIVTNVASQUGKTEVNYTQLVDLHARYAECGLRILAFPCNQFGKQEPGSNEEIKEFAAGYNVKFDMFSKICVNGDDAHPLWKWMKIQPKGKGILGNAIKWNFTKFLIDKNGCVVKRYGPMEEPLVIEKDLPHYF
B2: His-OTUD5 (natural protein)
chain: MTILPKKKPPPPDADPANEPPPPGPMPPAPRRGGGVGVGGGGTGVGGGDRDRDSGVVGARPRASPPPQGPLPGPPGALHRWALAVPPGAVAGPRPQQASPPPCGGPGGPGGGPGDALGAAAAGVGAAGVVVGVGGAVGVGGCCSGPGHSKRRRQAPGVGAVGGGSPEREEVGAGYNSEDEYEAAAARIEAMDPATVEQQEHWFEKALRDKKGFIIKQMKEDGACLFRAVADQVYGDQDMHEVVRKHCMDYLMKNADYFSNYVTEDFTTYINRKRKNNCHGNHIEMQAMAEMYNRPVEVYQYSTGTSAVEPINTFHGIHQNEDEPIRVSYHRNIHYNSVVNPNKATIGVGLGLPSFKPGFAEQSLMKNAIKTSEESWIEQQMLEDKKRATDWEATNEAIEEQVARESYLQWLRDQEKQARQVRGPSQPRKASATCSSATAAASSGLEEWTSRSPRQRSSASSPEHPELHAELGMKPPSPGTVLALAKPPSPCAPGTSSQFSAGADRATSPLVSLYPALECRALIQQMSPSAFGLNDWDDDEILASVLAVSQQEYLDSMKKNKVHRDPPPDKS
modifications: Red-tris-NTA dye on the His tag (MST only)

The target of the experiment “His-OTUD5” is B2. The experiment can be described thus: MST.
Experiment [1] deals with B1. As to the kind of experiment: SPR. For orientation: In SPR one partner is held on a chip, and binding of the other changes the refractive index at the surface.

The Kd is the equilibrium constant for the complex coming apart.

For B1, the Kd with His-OTUD5 worked out at 230 nM.
Take B2: in experiment [1], the Kd stood at 720 nM.

Values taken from article PMC10558642 (2023).
